In patent US10029000B2, “Uses of IL-12 in hematopoiesis” (University of Southern California, priority 2003, dated 2018):
Several values for one entry are separate records, joined by “and”; a condition that tells them apart may be missing. Identical values can stand only once.

How the values were obtained:
[1] = system: bone marrow progenitor cells; assay: Colony forming cell assay (CFC assay) of bone marrow after lethal irradiation; format: in vivo, mice
Description: To determine the bone marrow cell subsets that are protected by IL-12 administration for the rescue phenomena, CFC and CFU-S12 assay were performed at different time post lethal dose radiation. Bone marrow cells were recovered from IL-12 treated or control animals immediately (day 0), or at day 7, 9, 10, 12, 14 and 21 post radiation for CFC and CFU-S12 assay. If progenitor cells are protected from IL-12 treatment (IL-12 was administered in this study at 24 hours before radiation), CFC and CFU-S12 colonies should be detected when cells were removed at day 0. However, bone marrow cells isolated at day 0, 7 post radiation give rise no CFC nor CFU-S12 colonies in both IL-12 treated and control animals. At day 10 post radiation, the bone marrow cells isolated from IL-12 treated mice start to give rise of CFU-S12 but no detectable CFC, which start to appear from IL-112 treated bone marrow isolated 12 days post radiation and fully recovered from bone marrow cells isolated 14 days post radiation, as shown in FIGS. 5A and 5B. […] The CFU-S12 colony forming cells and CFC cells at day 10 and day 14 post radiation may be derived from long-term repopulating stem cells rescued by IL-12 treatment.
FIG. 5A: Isolated bone marrow cells were plated in methycellulose plates for 12 days to detect colony formation. Bone marrow cells from normal mice were used as control for the assay system. […] In contract, there is no recovery of CFC cell activity from control mice bone marrow cells.
24 hours before lethal irradiation, mice were i.v. treated with IL-12 (100 ng/mouse) and bone marrow cells were isolated from these mice at different days after lethal irradiation. For CFU assay, 2×10^5 bone marrow cells were thoroughly mixed into 1 ml methylcellulose medium MethCult GF M3434 from StemCell Technologies Inc (Vancouver, BC) and cultured into 35 mm dishes. Each sample was duplicated. After 12 days culture, colonies (>50 cells) were counted under microscope.

Sca-1+ cells = assay: Annexin V / Sca-1 detection after lethal dose radiation (apoptosis); format: in vivo, mice; conditions: IL-12 24 hours before 10 Gy, 7 hours post radiation
Description: IL-12 administration protects Annexin V^−/Sca-1^+ cells (H4) from radiation induced apoptosis, where the Sca-1^+ positive cells are indicative of the presence of hematopoietic repopulating cell or hematopoietic stem cells and Annexin V negative cells are indicative of the functional bone marrow cells.
A study was conducted to assess whether IL-12 administration protects Sca-1+ cells from radiation induced apoptosis. The Sca-1+ is a marker for hematopoietic repopulating cell or stem/progenitor cells. 24 hours post IL-12 administration, mice received lethal dose radiation (10 Gy). 7 hours post radiation, mice were sacrificed and bone marrow cells were isolated to detect Annexin V (an indication of cell apoptosis) and Sca-1 antigen (stem cell marker).

B1: IL-12: Recombinant murine interleukin 12, heterodimeric cytokine (p35+p40), purchased from R&D Systems or PeproTech (protein, UniProt P43431 23-215; P43432 23-335, looked up)
Interleukin-12 subunit alpha: RVIPVSGPARCLSQSRNLLKTTDDMVKTAREKLKHYSCTAEDIDHEDITRDQTSTLKTCLPLELHKNESCLATRETSSTTRGSCLPPQKTSLMMTLCLGSIYEDLKMYQTEFQAINAALQNHNHQQIILDKGMLVAIDELMQSLNHNGETLRQKPPVGEADPYRVKMKLCILLHAFSTRVVTINRVMGYLSSA
Interleukin-12 subunit beta: MWELEKDVYVVEVDWTPDAPGETVNLTCDTPEEDDITWTSDQRHGVIGSGKTLTITVKEFLDAGQYTCHKGGETLSHSHLLLHKKENGIWSTEILKNFKNKTFLKCEAPNYSGRFTCSWLVQRNMDLKFNIKSSSSSPDSRAVTCGMASLSAEKVTLDQRDYEKYSVSCQEDVTCPTAEETLPIELALEARQQNKYENYSTSFFIRDIIKPDPPKNLQMKPLKNSQVEVSWEYPDSWSTPHSYFSLKFFVRIQRKKEKMKETEEGCNQKGAFLVEKTSTEVQCKGGNVCVQAQDRYYNSSCSKWACVPCRVRS
[1]; day 12 post lethal radiation
  CFC activity: low level CFC cell activity
[1]; first 9 days post lethal radiation, IL-12 24 hours before radiation
  CFC activity: no detectable CFC activity
[1]; lethal radiation, IL-12 24 hours before radiation
  time of full recovery of CFC activity: about 14 days post radiation
Sca-1+ cells; control 9.7±1.5%, p<0.01
  AnnexinV-/Sca-1+ cells in whole bone marrow: 19.2±3.7% and 19.2±2.3%
Sca-1+ cells; control 44±5%, p<0.05
  proportion of AnnexinV-/Sca-1+ cells in total Sca-1+ cells: 54±5%
